19 sequences from the DeepSol protein solubility set can be followed below.

A short description of the data set: soluble on expression in E. coli; label from the status in PepcDB or PDB records.
On to “MGSDKIHHHHHHMKDLLNAFENKAPEIVFEWHDAETDATGWAVINSLRGGAAGGGTRMRKGLDKHEVVSLAKTMEIKFAVSGPHIGGAKSGINFDPADPRKNDVLNRWYKAVMPLLKSYYGTGGDLNVCEIKDVIPNTEEYGLWHPQEGIVNGHFHPSEELRIQKICQLRGGVTMPVVNPAYTPDPAKKYLVADLITGFGVSESVRHYYEIKGDSVAGKRVIVQGWGNVGGTAAYYLAANGAKVVGIIDRAAGLVSTEGLTFEQVKELLAKRVGNTLTGDNLLSAEDTQKLVWSVGADVFLPCAASRLVTREQVATLKDNGLGLIACGANVPFRDDNIFYGPTAEYADGVVDVIPDFIANCGMARAFNYLMSSKVDLDESAIFQDVSEVIRNALTESCAAATGKNHLLAASLKTVLHKLMH”, for which the “soluble on expression in E. coli” value is listed as “not soluble”.

Take “MIQGVIQKIAGPAVIAKGMLGARMYDICKVGEEGLVGEIIRLDGDTAFVQVYEDTSGLKVGEPVVSTGLPLAVELGPGMLNGIYDGIQRPLERIREKTGIYITRGVVVHALDREKKWAWTPMVKPGDEVRGGMVLGTVPEFGFTHKILVPPDVRGRVKEVKPAGEYTVEKPVVVLEDGTNLKMYHTWPVRRPRPVQRKLDPNTPFLTGMRILDVLFPVAMGGTAAIPGPFGSGKTVTQQSLAKWSNADVVVYVACGDRGNEMTDVLVEFPELTDPKTGGPLMRRTVLIANTSNMPVAAREASIYVGVTIAEYFRDQGFSVALMADSTSRWAEALREISSRLEEMPAEEGYPPYLAARLAAFYERAGKVITLGGEEGAVTIVGAVSPPGGDMSEPVTQSTLRIVGAFWRLDASLAFRRHFPAINWNGSYSLFTSALDPWYRENVAEDYPELRDAISELLQREAGLQEIVQLVGPDALQDAERLVIEVGRIIREDFLQQNAYHEVDAYCSMKKAYGIMKMILAFYKEAEAAIKRGVSIDEILQLPVLERIGRARYVSEEEFPAYFEEAMKEIQGAFKALA”: the “soluble on expression in E. coli” value is listed as “soluble”.

In the case of “MEFKVGDTVVYPHHGAAVIEAIEHREMGGETLEYLVLQINQSDLVVRVPSKNAELVGVRDVVDDDGLQKVFGFLRETDVEEAGNWSRRFKANQERLASGDVNKVAEVVRDLWRRDQGKGLSAGEKRMLAKARQVLVGELALAENKDEKQTEEILAQVDATIERHRAENKGIEETKVEPLGDIDLDDLNFDDED”, the “soluble on expression in E. coli” value is “not soluble”.

As to “MPLHHLTRFPRLEFIGAPTPLEYLPRLSDYLGREIYIKRDDVTPIAMGGNKLRKLEFLVADALREGADTLITAGAIQSNHVRQTAAVAAKLGLHCVALLENPIGTTAENYLTNGNRLLLDLFNTQIEMCDALTDPDAQLQTLATRIEAQGFRPYVIPVGGSSALGAMGYVESALEIAQQCEEVVGLSSVVVASGSAGTHAGLAVGLEHLMPDVELIGVTVSRSVAEQKPKVIALQQAIAGQLALTATADIHLWDDYFAPGYGVPNDAGMEAVKLLASLEGVLLDPVYTGKAMAGLIDGISQKRFNDDGPILFIHTGGAPALFAYHPHV”, the “soluble on expression in E. coli” value is “not soluble”.

On to “MGSDKIHHHHHHMRKLGWKELDIILVTGDAYVDHPSFGVAFIGHYLVSHGFKVGIIAQPDWRTEKDITRLGRPRLFFGVTAGNVDSMVANYTASKKKRKTDDYTPGGIGGKRPDRATIVYTNLIKRFFPEVPVVLGGLEASLRRFAHYDWWSDRVRKSVLVDSKADLLVYGMGEKAVLGIAQILSRTGDIEKCKSIRGVVWWASQKPEEGIELPSYDEISENPEKYAEALKLQTWYTDPYKNIPIYQRQDTRYVVQNPPQPPLSQEELDRLYLLPFEREVHPFYAKMGKVKAIETVKFSITAVRGCFGNCSFCALTQHQTTHVSYRSKDSILEEVRILTKKKDFKGTITDVGGPTANLYGSGCSIRETKGQCQKFCLYPIVCKVVRPNHDEFISLLESIRQIPGVRNVFVSSGIRHDFVFAEKDPDVFIRELVKYTPGQLKLAPEHAHPKVLSLMRKPPVELFLEFKKRFETLAKKMGKRKYVIGYFIVGHPGEGWRENNYLRDFILKHLGYFPQQIQIFTPTPGTVSTAMYYSGVDPFTGEKVHVERSLKVRNKMKENVLFKKKGREKR”, for which the “soluble on expression in E. coli” value is reported as “not soluble”.

In the case of “MGSDKIHHHHHHMGHKVTGSDANVYPPMSTQLEQQGIELIQGFDPAQLGKEGDNQPDLVVIGNAMSRGNPCVEAVLNRGIKYTSGPQFLSEHILQDRWVLAVAGTHGKTSTSSMLAWVLEYCGYEPGFLIGGVPQNFGVSARLGNSVFFVVEADEYDSAFFDKRSKFVHYHPRTLVINNLEFDHADIFADLAAIQRQFNHVIRTVPGEGKVIWPSDVEAVQQVIDMGCWSEQEIYSKATSLTTGLAEHSVNVSANQGEPNAWQPRTIADDGHEFEVLFKGESQGIVNWSLIGQHNIENAIMAIAAARHVGVAPSHAIEALAQFSPPKRRLELLATVNGVSVYDDFAHHPTAIATTLQGLRAKVASSDNANGNIIVVLEPRSNTMKSGVHKDTLANSMVLADVGYLYQADNIDWDIKASMANAPIPVTVFNNIEDIINAVAATANQGDTVVIMSNGGFNGIHQKMIKALA”, the “soluble on expression in E. coli” value is “not soluble”.

“MGSDKIHHHHHHMKRTYESGDKMIHTRGKAEGLREKLATILSQDYKELAVQDLKVIGTGVQNIVFRGDSEKGALAFRVPWEREVENINEDLFNSRISLQKEAELSKYCHSKGISVPRIHGLHLSAELDFLISDCVYTDHMPISAHKIGELVSKLHSMPIDDLHYEQNIREPISKYIAERIVKRIEGFNTITNCGMKLPDTKTIEHILSTADHEKSLLHMDIRPANLIGYNGEVKAIVDWDNALIGHPLLELMRIAETNEVSWEEFKDGYKNDSIFNATSHIVSLFYRLDTAVMLANLFIAHLKIEDKGVFYKERVKAIHHEIYKSL”: the “soluble on expression in E. coli” value was “not soluble”.

“MVERYSLSPMKDLWTEEAKYRRWLEVELAVTRAYEELGMIPKGVTERIRNNAKIDVELFKKIEEKTNHDVVAFVEGIGSMIGEDSRFFHYGLTSSDVLDTANSLALVEAGKILLESLKEFCDVLWEVANRYKHTPTIGRTHGVHAEPTSFGLKVLGWYSEMKRNVQRLERAIEEVSYGKISGAVGNYANVPPEVEEKALSYLGLKPEPVSTQVVPRDRHAFYLSTLAIVAAGIERIAVEIRHLQRTEVLEVEEPFRKGQRGSSAMPHKKNPITCERLTGLSRMMRAYVDPSLENIALWHERDISHSSVERYVFPDATQTLYYMIVTATNVVRNMKVNEERMKKNIDLTKGLVFSQRVLLKLIEKGLTRKEAYDIVQRNALKTWNSEKHFLEYLLEDEEVKKLVTKEELEELFDISYYLKHVDHIFERFEKE”: the “soluble on expression in E. coli” value is “soluble”.

For “MSGNYVINIGRQLGSGGKEIGEKLAARLGIDFYDKELINLASEESGLCKEFFEKADEKASQGIIGGLFGMRFPFISEGAMPCTNCLSNDALFKVQSDVIRRLAAEKSCVFVGRCADYILREHPRCANVFISATKEDRIARLCQMHRIDEEAAEEMIEKADKRRSEYYNYYSYKTWGAAATYHLCVDSSSLGIEETVRFVEEFVAKKLQIGM”, the “soluble on expression in E. coli” value was “not soluble”.

For “MLLENGWIVGVKQVLSPHFDLRPEGEMPSLLVIHSISLPPSEFGGPYIDQLFTGTLNADEHPYFASIVHLRVSAHCLIRRDGEIIQYVPFDKRAWHAGVSVFAGRERCNDFSIGIELEGTDVLPFTPVQYQRLTEISAVLFAHYPITVERVAGHSEIAPGRKTDPGLAFDWFFYQQNLAKLLV”, the “soluble on expression in E. coli” value is on record as “not soluble”.

Consider “RATDPFIVKHPLTGEKTIIAGYPWFSDWGRDVMISFPGLVLIPRRFEDAKSILKNFSSNCRRGLIPNNFPAFGGEPVYNTVDASLWFIHSLSRYFAYTEDLLFLSDIWGTVEDIIDNYSKGTDFGIGMDSDYLIRQGPQLTWMDAKVNDIPVTPRAGKACEINALWYNALRTACRLGDLLGRDTSSYETLAAGVASNFERVFWNPENNCLHDIVSEDKAGNQIKDSSIRPNQIFAVSLPYTMLSPEKEKAIVDRVEKDLLTPFGLRTLSLDDPSYIGLYRGGSESRDSAYHNGTVWPWLLGPYVKAYRKVHNYSKKSLEDMRALLQGFDSHLETAGIGTISEVFDGDFPHSPGGCIAQAWSVAEILRAYVEDVLGIKP”, for which the “soluble on expression in E. coli” value is recorded as “not soluble”.

On to “MSLTTMLEVAKRAGVSKATVSRVLSGNGYVSQETKDRVFQAVEESGYRPNLLARNLSAKSTQTLGLVVTNTLYHGIYFSELLFHAARMAEEKGRQLLLADGKHSAEEERQAIQYLLDLRCDAIMIYPRFLSVDEIDDIIDAHSQPIMVLNRRLRKNSSHSVWCDHKQTSFNAVAELINAGHQEIAFLTGSMDSPTSIERLAGYKDALAQHGIALNEKLIANGKWTPASGAEGVEMLLERGAKFSALVASNDDMAIGAMKALHERGVAVPEQVSVIGFDDIAIAPYTVPALSSVKIPVTEMIQEIIGRLIFMLDGGDFSPPKTFSGKLIRRDSLIAPSREGHHHHHH”, for which the “soluble on expression in E. coli” value is listed as “soluble”.

Take “MDKQVRNTTEIVRLAKQKSKKTREKVDKAISKFSIEGKVINFNSIAKEANVSKSWLYKEHDIRQRIESLRERQITANVVSKPKKSSRSEEILIKTLKRRVMELEKENKKLQNQIQKLYGDLYNKELEHHHHHH”: the “soluble on expression in E. coli” value is “soluble”.

For the sequence “MTTNYVLRKPWRWLTISKDMMINEQIRAREVRLVGANGDQLGIKSRNDALDLAANLNLDLVLVAPNAKPPVCRIMDYGKFRFEQQKKEKEQRKNQKVISMKEVRLSPTIDEHDFNTKLRNAIKFLEKGDKVKASIRFKGRAITHKEIGQRVLDRFSEACAEVSTIESKPKMEGRSMFLVLAPKNDK”, the “soluble on expression in E. coli” value is recorded as “not soluble”.

In the case of “MTTYLIIGANRVGQLVARQLATESATVRLLHDGKETLPSDLATQVTELTGDLTQEATYTAALQDQPIIFSALTGMDVDLAFEALFDAQYHQRLTFQRFVMLSTAGVDQEVTGDLAYPGITDVAEYLKQQRYAAKLVDEAEFPYTILRPVTLADSPRRDPQIIKEGAAVPAGTVSRETVAQVAVSLLQAGGADYQSLAICLEHHHHHH”, the “soluble on expression in E. coli” value was “not soluble”.

“AKYYNEPCHTFNEYLLIPGLSTVDCIPSNVNLSTPLVKFQKGQQSEINLKIPLVSAIMQSVSGEKMAIALAREGGISFIFGSQSIESQAAMVHAVKNFKDSQKRYLVGAGINTRDFRERVPALVEAGADVLCIDSSDGFSEWQKITIGWIRDKYGDKVKVGAGNIVDGEGFRYLADAGADFIKIGIGGGSICITREQKGIGRGQATAVIDVVAERNKYFEETGIYIPVCSDGGIVYDYHMTLALAMGADFIMLGRYFARFEESPTRKVTINGSVMKEYWGEGSSRARNWQRYDLGGKQKLSFEEGVDSYVPYAGKLKDNVEASLNKVKSTMCNCGALTIPQLQSKAKITLVSSVSIVEGGAHDVIVKDRINDYHPK”: the “soluble on expression in E. coli” value is “soluble”.

With “YCEFLNNELRAHASDLLPTAPVPTMMLDRAWDEATLHNITQLIYDVRKDDALFRREISKPGAFDLMRKNYWDRREYSAVTLVGNETCNLAPLAELGFQIEVSQ”, the “soluble on expression in E. coli” value is given as “not soluble”.

In the case of “SEEDNRAPQLWRKTLTAPAPFADETNCQCQAPHEKLTIAQARLGTPADRPVRVYADGIFDLFHSGHARALMQAKTLFPNSYLLVGVCSDDLTHKFKGFTVMNEAERYEALRHCRYVDEVIRDAPWTLTPEFLEKHKIDFVAHDDIPYSSAGSDDVYKHIKEAGMFVPTQRTEGISTSDIITRIVRDYDVYARRNLQRGYTAKELNVSFINEKRYRFQNQVDKMKEKVKNVEERSKEFVNRVEEKSHDLIQKWEEKSREFIGNFLELFGPDGAWKQMFQERSSRMLQALSPKQSPVSSPTRSRSPSRSPSPTFSWLPLKTSPPSSPKAASASISSMSEGDEDEK”, the “soluble on expression in E. coli” value is listed as “soluble”.

Take “SKRVVFVTVGTTSFDALVKAVVSQNVKDELQKRGFTHLLIQMGRGIFFPTKCDGADGSLVVDYFTFSSSIADYIRSASLVISHAGSGSIFETLKLGKPLIVVVNEDLMDNHQCELAEALEERKHLYYTRPHSLHQTLTKMELGSLVQYTPGDGTPVARIIDRFLG”: the “soluble on expression in E. coli” value is recorded as “soluble”.
